The EC50 is the concentration giving half of the maximal effect. By Kd is commonly meant the equilibrium constant for the complex coming apart. A higher Kd goes with lower affinity.

The target of assay [1] is T1, cynomolgus BTN3A as expressed on cynomolgus PBMCs (cynomolgus).
T1 construct: whole, on cells; also called Cyno PBMC
The assay is described as follows: flow cytometry on cynomolgus PBMCs. On the technique in general: In flow cytometry, cells or beads pass a laser one at a time.

Assay [2] addresses human BTN3A1 antigen (Sino Biological cat. no. 15973-H08H) (human, UniProt O00481 30-254). Kind of assay: SPR, Biacore T200 multi-cycle kinetics; antibody captured on Protein A, BTN3A1 as analyte. A general note: Surface plasmon resonance follows binding to a sensor surface in real time, without labels.

Sequence of human BTN3A1 antigen (Sino Biological cat. no. 15973-H08H) (O00481 30-254 limits assumed): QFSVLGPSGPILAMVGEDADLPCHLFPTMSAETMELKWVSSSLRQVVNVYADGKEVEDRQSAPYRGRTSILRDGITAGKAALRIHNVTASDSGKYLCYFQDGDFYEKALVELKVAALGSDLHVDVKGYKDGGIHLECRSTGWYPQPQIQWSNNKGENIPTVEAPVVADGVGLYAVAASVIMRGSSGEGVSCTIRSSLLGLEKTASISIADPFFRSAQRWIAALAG

B1: mAb 3, humanized form of mAb 20.1 (antibody, human IgG1, kappa, V domains shown)
VH: QVQLVQSGAEVKKPGASVKVSCKASGYTFTRYYLYWVKQRPGQGLEWIGEINPNNGGTKFNEKFKSRATMTVDKSTRTTYMELSSLRSEDTAVYYCSREDDYDGTPDAMDYWGQGTLVTVSS
VL: DIQMTQSPSSLSASVGDRVTITCHASQNINLWLSWYQQKPGKAPKLLIYRASNLHTGVPSRFSGSGSATDFTFTISSLQPEDIATYYCQQGHSYPYTFGGGTKVDIKR
notes: also called 20.1 Humanized mAb 3; humanized mAb 20.1
Molecule B1 showed an EC50 in assay [1] of 5.74 µg/mL. Besides, the Kd in assay [2] is 319 pM.
